Reference: publication PMC5127646 (2016)

B1: SmN peptide, residues 219-229 (GMRPPPPGIRG) [human] / RBM5 OCRE domain (residues 451-511), wild type [human] (parent complex)
chain 1: GMRPPPPGIRG
chain 2: GAMGTKYAVPDTSTYQYDESSGYYYDPTTGLYYDPNSQYYYNSLTQQYLYWDGEKETYVPAAES

Variants of: B1
Test: NMR titration (chemical shift perturbation score); 1:10 ratio of OCRE:peptide; read off a plot

First: chain 1 P4A, chain 1 P6A
Second: chain 1 R10A
The ratio to parent of the first is lower: about 0.27 for the first, about 0.67 for the second.

First: chain 1 R10E
Second: chain 1 R3A
The ratio to parent of the first is higher: about 0.54 for the first, about 0.51 for the second.

Going from chain 1 R3E to chain 1 R3A, chain 1 R10A, the ratio to parent rises from about 0.19 to about 0.24.

For chain 1 R3E, chain 1 R10E, the ratio to parent was about 0.05.
